In PMC3642088, “Phosphorylation of CDK9 at Ser175 Enhances HIV Transcription and Is a Marker of Activated P-TEFb in CD4^+ T Lymphocytes” (PLoS Pathogens, 2013):

Columns and labels:
[1] = biological target: Cyclin T1 (CycT1, hCycT1) (UniProt O60563); experiment: anti-FLAG co-IP, Western blot; details: reference: wild type
Tat = experiment: anti-FLAG co-IP, Western blot; details: reference: wild type; sites S175
BRD4 = BRD4 (UniProt O60885); experiment: anti-FLAG co-IP, Western blot; details: reference: wild type
[2] = biological target: FLAG-tagged CDK9 (293T cells) (human) (UniProt P50750); experiment: co-IP; anti-FLAG IP from 293T cells stably expressing FLAG-tagged CDK9, with or without transiently transfected HA-tagged Tat, with or without PMA for 1 hr or 2 hrs, Western blot
FLAG-CDK9 S175D (human) [3] = biological target: FLAG-CDK9 S175D (human) (UniProt P50750)
FLAG-CDK9 S175A (human) = FLAG-CDK9 S175A (human) (UniProt P50750); experiment: co-IP; anti-FLAG IP of FLAG-CDK9 wildtype or mutants from latently infected Jurkat T-cells induced for 16 hr with TNF-α to express Tat, Western blot for BRD4, Tat and CycT1; levels normalised to total CDK9, three experiments
FLAG-CDK9 S175D (human) [4] = biological target: FLAG-CDK9 S175D (human) (UniProt P50750); experiment: as above
FLAG-HEXIM1 = FLAG-HEXIM1 (UniProt O94992); experiment: co-IP; anti-FLAG IP of FLAG-HEXIM1 from whole cell extracts of 2D10 cells, unstimulated or PMA for 1 h with or without U0126, FLAG peptide elution, Western blot
FLAG-CDK9 S175D = biological target: T1, FLAG-CDK9 S175D (human, UniProt P50750 1-372, S175D); experiment: co-IP; anti-FLAG M2 agarose IP of FLAG-CDK9 wildtype or mutants from whole cell extracts (lysis buffer A) of Jurkat 2D10 cells, FLAG peptide elution, Western blot; densitometry normalised to total immunoprecipitated CDK9, five experiments; details: partners not purified
T1 construct: also called S175D CDK9; Ser175Asp

FLAG-CDK9 T186A = biological target: T2, FLAG-CDK9 T186A (human, UniProt P50750 1-372, T186A); experiment: as above; details: partners not purified
T2 construct: also called T186A CDK9

FLAG-CDK9 S175A = biological target: T3, FLAG-CDK9 S175A (human, UniProt P50750 1-372, S175A); experiment: as above; details: partners not purified
T3 construct: also called S175A CDK9; Ser175Ala

FLAG-CDK9 T186D = biological target: T4, FLAG-CDK9 T186D (human, UniProt P50750 1-372, T186D); experiment: as above; details: partners not purified
T4 construct: also called T186D CDK9

For “CDK9 (FLAG-CDK9 isoform 1) (from UniProt P50750) S175A”, the percent of reference ([1]; sites S175) was 98.9%, the percent of reference (Tat) was 59.2% and the percent of reference (BRD4; sites S175) was 1.9%.

In the case of “CDK9 (FLAG-CDK9 isoform 1) (from UniProt P50750) S175D”, the percent of reference ([1]; sites S175) is reported as 78.9%.

“CDK9 (FLAG-CDK9 isoform 1) (from UniProt P50750) T186D” was tested, and the percent of reference ([1]; sites T186) was 49.4% and the percent of reference (BRD4; sites T186) was 61.6%.

Molecule “HA-tagged Tat (from UniProt P04608 1-86) (natural protein)” has a percent increase of Tat associated with CDK9 after 1 hr of PMA [2] of 12%, a percent of HEXIM1 released from FLAG-CDK9 on expression of HA-Tat [2] of 71% and a percent of LARP7 released from FLAG-CDK9 on expression of HA-Tat [2] of 82%.

For “HIV Tat H13L (from UniProt P04608 1-86) (natural protein)”, the CDK9 kinase activity of the affinity purified FLAG-CDK9 complex in the in vitro RNAP II CTD kinase assay, against wildtype CDK9 (FLAG-CDK9 S175D (human) [3]) was 159%, the CDK9 kinase activity of the affinity purified FLAG-CDK9 complex in the in vitro autophosphorylation assay, against wildtype CDK9 (FLAG-CDK9 S175D (human) [3]) was 117% and the percent of wildtype association (FLAG-CDK9 S175A (human)) was 59.2%. It also gave a percent of wildtype association (FLAG-CDK9 S175D (human) [4]) of 109%.

“endogenous CDK9 (from UniProt P50750 1-372) (enzyme)” gave a percent reduction of association after PMA for 1 h (FLAG-HEXIM1) of 30%.

B1: LARP7 (natural protein, human (endogenous in Jurkat), UniProt Q4G0J3 1-582, looked up)
chain: METESGNQEKVMEEESTEKKKEVEKKKRSRVKQVLADIAKQVDFWFGDANLHKDRFLREQIEKSRDGYVDISLLVSFNKMKKLTTDGKLIARALRSSAVVELDLEGTRIRRKKPLGERPKDEDERTVYVELLPKNVNHSWIERVFGKCGNVVYISIPHYKSTGDPKGFAFVEFETKEQAAKAIEFLNNPPEEAPRKPGIFPKTVKNKPIPALRVVEEKKKKKKKKGRMKKEDNIQAKEENMDTSNTSISKMKRSRPTSEGSDIESTEPQKQCSKKKKKRDRVEASSLPEVRTGKRKRSSSEDAESLAPRSKVKKIIQKDIIKEASEASKENRDIEISTEEEKDTGDLKDSSLLKTKRKHKKKHKERHKMGEEVIPLRVLSKSEWMDLKKEYLALQKASMASLKKTISQIKSESEMETDSGVPQNTGMKNEKTANREECRTQEKVNATGPQFVSGVIVKIISTEPLPGRKQVRDTLAAISEVLYVDLLEGDTECHARFKTPEDAQAVINAYTEINKKHCWKLEILSGDHEQRYWQKILVDRQAKLNQPREKKRGTEKLITKAEKIRLAKTQQASKHIRFSEYD
notes: source: endogenous, Jurkat T-cell whole cell extract
With B1 the “percent co-immunoprecipitated against wildtype CDK9” value (“percent co-immunoprecipitated” below) (FLAG-CDK9 S175D) was 77.2%, the “percent reduction of co-precipitation against wildtype CDK9” value (from here on “percent reduction of co-precipitation”) (FLAG-CDK9 T186A) was > 99% and the “percent co-immunoprecipitated” value (FLAG-CDK9 S175A) was > 90%. For the same molecule, the “percent reduction of co-precipitation” value (FLAG-CDK9 T186D) was > 99%.

B2: HEXIM1 (natural protein, human (endogenous in Jurkat), UniProt O94992 1-359, looked up)
chain: MAEPFLSEYQHQPQTSNCTGAAAVQEELNPERPPGAEERVPEEDSRWQSRAFPQLGGRPGPEGEGSLESQPPPLQTQACPESSCLREGEKGQNGDDSSAGGDFPPPAEVEPTPEAELLAQPCHDSEASKLGAPAAGGEEEWGQQQRQLGKKKHRRRPSKKKRHWKPYYKLTWEEKKKFDEKQSLRASRIRAEMFAKGQPVAPYNTTQFLMDDHDQEEPDLKTGLYSKRAAAKSDDTSDDDFMEEGGEEDGGSDGMGGDGSEFLQRDFSETYERYHTESLQNMSKQELIKEYLELEKCLSRMEDENNRLRLESKRLGGDDARVRELELELDRLRAENLQLLTENELHRQQERAPLSKFGD
notes: as for B1
For B2, the “percent co-immunoprecipitated” value (FLAG-CDK9 S175D) was 67.5%, the “percent reduction of co-precipitation” value (FLAG-CDK9 T186A) was > 99% and the “percent co-immunoprecipitated” value (FLAG-CDK9 S175A) was > 90%. For the same molecule, the “percent reduction of co-precipitation” value (FLAG-CDK9 T186D) was > 99%.
